The source of these data is patent US20240376188A1 (UNIVERSITY OF NORTH CAROLINA AT CHAPEL HILL, published 2024).

Ends that are not written are not given here.

The target of this assay is T1, acetylated peptide at residue K280 (276QIIN-K-Ac-KLDLSNVQSC) (human).
T1 construct: Coated at 1 ug/ml on 96-well plates; also called acetylated tau peptide
T1 peptide: QIINK(Ac)KLDLSNVQSC
In words: peptide ELISA, peptide coated at 1 ug/ml, hybridoma supernatant diluted 1:10 to 1:2,500. Here is the method: FIG. 13 includes an ELISA assay showing two K280 clones, 19B6 and 17G8, preferentially detect acetylated vs, non-acetylated tau peptides. Standard peptide ELISAs were performed with 1 μg/ml acetylated peptides at residue K280 (276QIIN-K-Ac-[…] (SEQ ID NO:17)) vs, non-acetylated peptides (276[…] (SEQ ID NO: 16)) and used to coat 96-well plates followed by washing with coating buffer (Phosphate Buffered Saline, pH 7.4) and incubated with serial dilutions of hybridoma supernatants (diluted from 1:10 to 1:2,500). Monoclonal antibodies were […] Horseradish peroxidase (HRP)-labeled secondary antibodies and colorimetric ELISAs were performed using a BMG/BioTek® multiplate reader at a standard absorbance setting of 450 nm with auto-mixing and blanking.
(In general: ELISA stands for enzyme-linked immunosorbent assay.)

B1: 19B6 (antibody, V domains shown)
VH: EVQLQQSGAEFVRPGASVKLSCTVSGLNIEDDYIQWLKQRPEQGLEWIGWIDPENGDPKYASKFQGKATLTADTSSKIAYLHLSSLTSEDTAVYYCATRGLWGQGTTLTVSS
VL: QIVLTQSPAIMSASLGERVTMTCTASSSVSSSYFHWYQQKPGSSPKLWIYSTSNLASGVPVRFSGSGSGTSYSLTISSMEAEDAATYYCHQYHRSPLTFGAGTKLELK
notes: Used as hybridoma supernatant in the peptide ELISA; also called Ac-K280 clone 19B6
For the molecule B1, the binding result is reported as “binds”.

B2: 17G8 (antibody, V domains shown)
VH: B1 VH
VL: B1 VL
notes: Used as hybridoma supernatant in the peptide ELISA; also called Ac-K280 clone 17G8
B2: the binding result was “binds”.
